Measured values published in patent US20240010721A1 (HARBOUR BIOMED SHANGHAI, published 2024).
Substitutions are numbered along the chain they refer to.

B1: PR001360 (antibody, human IgG1, kappa, V domains shown)
VH: QVQLVESGGGVVQPGRSLRLSCAASGFTFSSYGMHWVRQAPGKGLEWVAVIWYDGSDKDSVDSVKGRFTISRDDSKNTLYLQMNSLRAEDTAVYYCAREQARSFDLWGRGTLVTVSS
VL: DIQMTQSPSTLSASVGDRVTITCRASQTINNWLAWYQQKPGKAPKLLIYKASSLESGVPSRFSGSGSGTEFTLTISSLQPDDFATYYCQQYNIYSPMYTFGQGTKVEIKR
notes: fully human IgG1, kappa
B2: PR001352 (antibody, human IgG1, kappa, V domains shown)
VH: EVQLLESGGGVVQPGRSLRLSCAASGFTFSSYGMHWVRQAPGKGLEWVAVKWYDGISQNFADSVKGRFTISRDNSKNTLYLQMNSLRAEDTAVYYCARDLARSFDLWGRGTLVTVSS
VL: B1 VL with M4L, T10S, I93S
notes: fully human IgG1, kappa
B3: PR001361 (antibody, V domains shown)
VH: QVQLVQSGGGVVQPGRSLRLSCTASGFTFSRYGMLWVRQAPGKGLEWVAVAWYDGVSEDYADSVKGRFTISRDNSMNTLSLQMNSLRAEDTAVYYCAREQARSFDLWGRGTLVTVSS
VL: B1 VL with M4L, T28S, N31S, N92K, I93S, E107D
notes: fully human IgG1, kappa
B4: PR001370 (antibody, V domains shown)
VH: B2 VH
VL: B1 VL with Q3V, T28S, I93S, E107D
notes: fully human IgG1, kappa
B5: PR001358 (antibody, human IgG1, kappa, V domains shown)
VH: B1 VH with E6Q, G33A, V50I, I51M, D57N, K58T, S60Y, V61A, D74T, Y80F
VL: B1 VL with Q3V, T28S, N31S, S53N, N92K, I93S, E107D
notes: fully human IgG1, kappa
B6: PR001368 (antibody, V domains shown)
VH: B1 VH with S31T, K58T, S60Y, V61A, D74T
VL: B1 VL with Q3V, T28S, N31S, N92K, I93S
notes: fully human IgG1, kappa
B7: PR001367 (antibody, human IgG1, kappa, V domains shown)
VH: B1 VH with T28S, G33A, K43R, S56G, K58E, S60Y, V61I
VL: B1 VL with I2V, Q3V, I93S
notes: fully human IgG1, kappa
B8: PR001371 (antibody, human IgG1, kappa, V domains shown)
VH: B3 VH with Q6E, T23A, R31S
VL: B1 VL with M4L, T10S, I93S
notes: fully human IgG1, kappa
B9: PR001365 (antibody, human IgG1, kappa, V domains shown)
VH: B1 VH with E6Q, S60Y, V61A, D74T
VL: B1 VL with S9Y, T10S, N92K, I93L
notes: fully human IgG1, kappa
B10: PR001363 (antibody, human IgG1, kappa, V domains shown)
VH: B1 VH with T28S, G33A, K43R, S56G, K58E, V61I
VL: B1 VL with I2V, Q3V, I93S
notes: fully human IgG1, kappa

The binders below were run against T1, hROR2ECD-his (human, UniProt Q01974 34-403) (assay: ELISA, plate coated with hROR2 ECD-his).
T1 construct: extracellular domain; bought, Acrobiosystems R02-H52E5; also called huROR2-his
T1 sequence (Q01974 34-403): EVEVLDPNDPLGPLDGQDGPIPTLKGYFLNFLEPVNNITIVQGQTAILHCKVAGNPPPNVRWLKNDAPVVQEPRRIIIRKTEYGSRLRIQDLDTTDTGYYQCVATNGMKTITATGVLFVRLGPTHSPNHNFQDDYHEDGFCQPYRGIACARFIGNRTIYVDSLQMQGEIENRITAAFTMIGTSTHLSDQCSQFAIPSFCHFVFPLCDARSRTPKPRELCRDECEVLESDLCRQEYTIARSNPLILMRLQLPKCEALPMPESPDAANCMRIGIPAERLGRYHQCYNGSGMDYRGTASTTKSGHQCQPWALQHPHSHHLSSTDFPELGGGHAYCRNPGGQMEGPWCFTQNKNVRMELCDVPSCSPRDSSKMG
Protocol: (§1) Screening by ELISA assay: 96-well plates (Corning 9018) were coated with 1 μg/mL hROR1 ECD-his/hROR2 ECD-his/mROR1 ECD-his proteins prepared with PBS in Example 1a above and incubated at 4° C. overnight. The liquid was then discarded, and the plates were washed 3 times with PBST, blocked with 5% milk for 2 h at room temperature, and washed 3 times with PBST. The taken supernatant was added at 100 μL/well, and the plates were incubated at room temperature for 1 h, followed by washing 3 times with PBST. 100 μL/well of secondary antibody (Sigma, Cat#: A8592) was added, the plates were incubated at room temperature for 1 h, and then washed. TMB was then added to the plates at 100 μL/well and incubated for 15 min at room temperature. Thereafter, the reaction was terminated and data were read.
(§2) a. Results of ELISA assay (the ELISA assay was performed according to the same procedures as in Example 2c, except that the added samples were recombinant antibodies and the secondary antibody was a-Fc (Genscript, Cat#: A01854))
The corresponding values in the table are the measured median fluorescence intensity (MFI).
B1: no binding.
B2: no binding.
B3: no binding.
B4: no binding.
B5: no binding.
B6: no binding.
B7: no binding.
B8: no binding.
B9: no binding.
B10: no binding.

Each binder was assayed against T2, cynomolgus ROR1 (cynoROR1) on CHO-K1 cells (cynomolgus, UniProt A0A2K5WTX7 30-937) (assay: FACS, CHO-K1-cynoROR1 cells).
T2 construct: whole, on cells; also called CHO-K1-cynoROR1; CHO-K1-cyROR1
Protocol: (§3) The binding properties were characterized by FACS. The recombinant antibodies obtained above were serially diluted to 9 different concentrations and incubated for 1 h, and then determined for the binding ability with HEK293T-hROR1, CHO-K1-cynoROR1 and A549 cell lines (endogenously expressing ROR1), respectively. The secondary antibody was then incubated for 1 h. The results are shown in FIG. 4-6 and Table 7-2 below.
For B1, the “MAX(MFI)” value was 25000 MFI.
For B2, the “MAX(MFI)” value was 30700 MFI.
B3 was tested, and the “MAX(MFI)” value was 27200 MFI.
B4 was tested, and the “MAX(MFI)” value was 26000 MFI.
B5 was tested, and the “MAX(MFI)” value was 27300 MFI.
In the case of B6, the “MAX(MFI)” value is reported as 27800 MFI.
For B7, the “MAX(MFI)” value was 21200 MFI.
For B8, the “MAX(MFI)” value was 28400 MFI.
For B9, the “MAX(MFI)” value was 22100 MFI.
In the case of B10, the “MAX(MFI)” value is reported as 17200 MFI.

What follows are binders tested against ROR1 (antigen of the KD determination and of the Octet dissociation measurement) (UniProt Q01973 30-403, limits assumed) (assay: method not stated (conventional procedures)).
Sequence of ROR1 (antigen of the KD determination and of the Octet dissociation measurement) (Q01973 30-403 limits assumed): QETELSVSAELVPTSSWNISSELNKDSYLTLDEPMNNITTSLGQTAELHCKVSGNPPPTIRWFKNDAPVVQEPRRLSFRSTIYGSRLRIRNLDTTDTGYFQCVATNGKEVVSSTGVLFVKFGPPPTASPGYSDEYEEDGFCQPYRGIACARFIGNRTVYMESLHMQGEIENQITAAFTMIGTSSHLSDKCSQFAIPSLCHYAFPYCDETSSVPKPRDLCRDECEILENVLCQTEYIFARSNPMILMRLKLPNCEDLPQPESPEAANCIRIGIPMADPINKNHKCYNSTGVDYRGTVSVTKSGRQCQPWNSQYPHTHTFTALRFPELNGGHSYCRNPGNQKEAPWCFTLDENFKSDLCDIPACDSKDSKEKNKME
Binder B1 has a Kd of 0.804 nM, a koff of 0.000248 s⁻¹ and a kon of 309000 M⁻¹ s⁻¹.
With B2 the Kd was 1.51 nM, the koff was 0.000476 s⁻¹ and the kon was 316000 M⁻¹ s⁻¹.
B3 was tested, and the Kd was 1.83 nM, the koff was 0.00108 s⁻¹ and the kon was 590000 M⁻¹ s⁻¹.
B4 showed a Kd of 3.97 nM, a koff of 0.00113 s⁻¹ and a kon of 285000 M⁻¹ s⁻¹.
With B5 the Kd was 1.07 nM, the koff was 0.000518 s⁻¹ and the kon was 482000 M⁻¹ s⁻¹.
B6 was tested, and the Kd was 2.16 nM, the koff was 0.000867 s⁻¹ and the kon was 402000 M⁻¹ s⁻¹.
B7 was tested, and the Kd was 3.06 nM, the koff was 0.00104 s⁻¹ and the kon was 341000 M⁻¹ s⁻¹.
B8 gave a Kd of 1.76 nM, a koff of 0.000525 s⁻¹ and a kon of 298000 M⁻¹ s⁻¹.
In the case of B9, the Kd is reported as 0.237 nM, the koff is reported as 7.72e-05 s⁻¹ and the kon is reported as 325000 M⁻¹ s⁻¹.
B10 showed a Kd of 2.9 nM, a koff of 0.00101 s⁻¹ and a kon of 348000 M⁻¹ s⁻¹.

Biological target: T1, hROR2ECD-his
Assay: ELISA, plate coated with hROR2 ECD-his
Remark: another data set of the same source
Protocol: as §1, §2
In the case of B1, the “ELISA signal (called MFI)” value is reported as 0.0315.
B2 was tested, and the “ELISA signal (called MFI)” value was 0.0335.
With B3 the “ELISA signal (called MFI)” value was 0.028.
With B4 the “ELISA signal (called MFI)” value was 0.0335.
B5 was tested, and the “ELISA signal (called MFI)” value was 0.049.
With B6 the “ELISA signal (called MFI)” value was 0.0255.
With B7 the “ELISA signal (called MFI)” value was 0.0235.
For B8, the “ELISA signal (called MFI)” value was 0.0235.
In the case of B9, the “ELISA signal (called MFI)” value is reported as 0.0285.
With B10 the “ELISA signal (called MFI)” value was 0.0305.

Each binder was assayed against T3, human ROR1 (hROR1) on cells (human, UniProt Q01973 30-937) (assay: FACS, A549 cells).
T3 construct: whole, on cells; the cell line is named under assay; also called HEK293T-hROR1; 293T-hROR1
T3 sequence (Q01973 30-937): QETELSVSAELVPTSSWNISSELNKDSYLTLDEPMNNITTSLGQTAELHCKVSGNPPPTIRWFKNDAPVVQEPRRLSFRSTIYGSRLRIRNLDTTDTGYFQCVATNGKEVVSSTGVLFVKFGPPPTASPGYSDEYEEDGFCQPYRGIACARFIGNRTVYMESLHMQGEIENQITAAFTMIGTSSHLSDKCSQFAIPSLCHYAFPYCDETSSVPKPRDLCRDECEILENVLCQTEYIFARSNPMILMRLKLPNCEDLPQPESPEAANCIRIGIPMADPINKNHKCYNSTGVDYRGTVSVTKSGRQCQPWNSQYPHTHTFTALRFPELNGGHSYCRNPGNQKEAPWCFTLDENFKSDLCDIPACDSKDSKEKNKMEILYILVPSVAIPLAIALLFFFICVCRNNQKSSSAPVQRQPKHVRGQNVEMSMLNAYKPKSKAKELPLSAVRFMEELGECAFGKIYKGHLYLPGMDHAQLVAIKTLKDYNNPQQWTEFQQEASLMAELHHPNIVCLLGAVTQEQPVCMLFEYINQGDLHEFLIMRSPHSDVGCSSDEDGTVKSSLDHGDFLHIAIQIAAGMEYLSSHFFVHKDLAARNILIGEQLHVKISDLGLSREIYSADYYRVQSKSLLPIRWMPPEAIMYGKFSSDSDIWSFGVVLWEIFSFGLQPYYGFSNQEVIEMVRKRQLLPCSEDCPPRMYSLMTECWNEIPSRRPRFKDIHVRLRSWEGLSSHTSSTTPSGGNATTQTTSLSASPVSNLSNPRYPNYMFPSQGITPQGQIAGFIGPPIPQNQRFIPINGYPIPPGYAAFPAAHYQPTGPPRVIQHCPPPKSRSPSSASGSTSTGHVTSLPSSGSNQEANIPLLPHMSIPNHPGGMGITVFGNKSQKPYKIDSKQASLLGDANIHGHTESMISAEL
Protocol: as §3
B1 was tested, and the “MAX(MFI)” value was 4050 MFI.
For B2, the “MAX(MFI)” value was 4520 MFI.
In the case of B3, the “MAX(MFI)” value is reported as 4520 MFI.
For B4, the “MAX(MFI)” value was 3920 MFI.
B5 was tested, and the “MAX(MFI)” value was 4970 MFI.
With B6 the “MAX(MFI)” value was 4210 MFI.
In the case of B7, the “MAX(MFI)” value is reported as 3450 MFI.
B8 was tested, and the “MAX(MFI)” value was 4110 MFI.
For B9, the “MAX(MFI)” value was 4400 MFI.
B10 was tested, and the “MAX(MFI)” value was 3700 MFI.

What follows are binders tested against T3, human ROR1 (hROR1) on cells (assay: FACS, HEK293T-hROR1 cells; cytometer saturated).
Protocol: as §3
With B1 the “MAX(MFI)” value was 262000 MFI.
In the case of B2, the “MAX(MFI)” value is reported as 262000 MFI.
For B3, the “MAX(MFI)” value was 262000 MFI.
In the case of B4, the “MAX(MFI)” value is reported as 262000 MFI.
With B5 the “MAX(MFI)” value was 262000 MFI.
With B6 the “MAX(MFI)” value was 262000 MFI.
In the case of B7, the “MAX(MFI)” value is reported as 262000 MFI.
With B8 the “MAX(MFI)” value was 262000 MFI.
With B9 the “MAX(MFI)” value was 262000 MFI.
In the case of B10, the “MAX(MFI)” value is reported as 262000 MFI.

The binders below were run against T3, human ROR1 (hROR1) on cells (assay: FACS, HEK293T-hROR1 cells).
Protocol: as §3
In the case of B1, the “fold lower EC50 than reference PR000374” value is reported as 10 fold.
For B2, the “fold lower EC50 than reference PR000374” value was 10 fold.
With B3 the “fold lower EC50 than reference PR000374” value was 10 fold.
For B4, the “fold lower EC50 than reference PR000374” value was 10 fold.
For B5, the “fold lower EC50 than reference PR000374” value was 10 fold.
With B6 the “fold lower EC50 than reference PR000374” value was 10 fold.
With B7 the “fold lower EC50 than reference PR000374” value was 10 fold.
In the case of B8, the “fold lower EC50 than reference PR000374” value is reported as 10 fold.
With B9 the “fold lower EC50 than reference PR000374” value was 10 fold.
With B10 the “fold lower EC50 than reference PR000374” value was 10 fold.

These binders were tested against T4, Human ROR1-ECD-his (human, UniProt Q01973 30-406) (assay: ELISA, plate coated with hROR1 ECD-his).
T4 construct: extracellular domain; bought, Acrobiosystems RO1-H522y; also called hROR1-ECD-his; hROR1 ECD-his
T4 sequence (Q01973 30-406): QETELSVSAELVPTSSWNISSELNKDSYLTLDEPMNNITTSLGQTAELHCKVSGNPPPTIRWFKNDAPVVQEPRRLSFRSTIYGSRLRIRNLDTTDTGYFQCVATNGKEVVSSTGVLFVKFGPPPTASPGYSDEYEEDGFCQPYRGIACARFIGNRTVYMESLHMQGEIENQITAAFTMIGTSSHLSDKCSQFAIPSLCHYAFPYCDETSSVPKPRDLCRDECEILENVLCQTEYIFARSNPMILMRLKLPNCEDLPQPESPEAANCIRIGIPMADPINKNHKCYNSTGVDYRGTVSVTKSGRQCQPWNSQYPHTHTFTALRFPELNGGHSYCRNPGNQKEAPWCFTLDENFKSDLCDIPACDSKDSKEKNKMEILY
Protocol: as §1, §2
In the case of B1, the “ELISA signal (called MFI)” value is reported as 2.44.
In the case of B2, the “ELISA signal (called MFI)” value is reported as 2.48.
In the case of B3, the “ELISA signal (called MFI)” value is reported as 2.28.
B4 was tested, and the “ELISA signal (called MFI)” value was 2.53.
With B5 the “ELISA signal (called MFI)” value was 2.47.
B6 was tested, and the “ELISA signal (called MFI)” value was 2.51.
For B7, the “ELISA signal (called MFI)” value was 2.38.
B8 was tested, and the “ELISA signal (called MFI)” value was 2.38.
For B9, the “ELISA signal (called MFI)” value was 2.35.
In the case of B10, the “ELISA signal (called MFI)” value is reported as 2.45.
